The numbers were not newly measured in article PMC8509676, “Residual Helicity at the Active Site of the Histidine Phosphocarrier, HPr, Modulates Binding Affinity to Its Natural Partners” (International Journal of Molecular Sciences, 2021), which cites them from elsewhere.

The target in this data set is Rsd. The arrangement: method as in PMID 24324139. The following applies: SPR; read-out: dissociation constant, Rsd-HPr in E. coli; cited from earlier work. Background: In SPR one partner is held on a chip, and binding of the other changes the refractive index at the surface.

B1: HPr^sc: intact histidine phosphocarrier protein HPr from Streptomyces coelicolor (O50515) (protein, UniProt O50515 2-93, looked up)
Phosphocarrier protein HPr: AERRVNVGWAEGLHARPASIFVRAATATGVPVTIAKADGSPVNAASMLAVLGLGAQGGEEIVLASDAEGAEAALERLAKLVAEGLEELPETV
As for B1, the Kd was 8.87 nM.
